Publication PMC12476982

What was measured:
Assay in all cases: fluorescence polarization
Details in all cases: FP: 10 nM Cy5 nucleosome in Buffer B (composition not in material) except 60 mM NaCl, quadratic fit, EMSA: 15 nM nucleosome, 15 min, room …
cBAF (ARID1A) (human) = tested on: cBAF (ARID1A) (human)
BRG1 (human) = tested on: BRG1 (human)
ncBAF (human) = tested on: ncBAF (human)
PBAF (human) = tested on: PBAF (human)

Cy5 mononucleosome, 197-bp 601 DNA
Kd (cBAF (ARID1A) (human)): 0.045 µM
Kd (BRG1 (human)): 0.115 µM
Kd (ncBAF (human)): 0.017 µM
Kd (PBAF (human)): 0.082 µM
